Laboratory results as given in patent US20240150474A1 (Regeneron, published 2024).
Where a chain is given by its changes, count along the chain named. Values belong to the molecule of their own block, whether it stands above or below them.

Tests used:
[1] = target: full length human ACVR1 (amino acids 1-509, R206H, of accession #Q04771) on HEK293/BRE-luc/hACVR1-R206H-clone H2 cells (human) (UniProt Q04771); test: flow cytometry, secondary antibody alone on HEK293/hACVR1-R206H cells, 4C
[2] = target: human ACVR1 extracellular domain expressed with a C-terminal myc-myc-hexahistidine tag (human); test: BLI (Octet) cross-competition: hACVR1.mmh captured on anti-His biosensor, saturated with 1st mAb REGN 5166 (50 ug/mL), then dipped into 2nd mAb Isotype Control (50 ug/mL); white cell
[3] = target: human ACVR1 extracellular domain expressed with a C-terminal myc-myc-hexahistidine tag (human); test: BLI (Octet) cross-competition: hACVR1.mmh captured on anti-His biosensor, first dipped into 1st mAb Isotype Control (50 ug/mL), then into 2nd mAb Isotype Control (50 ug/mL); dotted cell (self-self)
[4] = target: human ACVR1 extracellular domain expressed with a C-terminal myc-myc-hexahistidine tag (human); test: BLI (Octet) cross-competition: hACVR1.mmh captured on anti-His biosensor, saturated with 1st mAb REGN 5168 (50 ug/mL), then dipped into 2nd mAb Isotype Control (50 ug/mL); white cell
[5] = target: human ACVR1 extracellular domain expressed with a C-terminal myc-myc-hexahistidine tag (human); test: BLI (Octet) cross-competition: hACVR1.mmh captured on anti-His biosensor, saturated with 1st mAb REGN 5167 (50 ug/mL), then dipped into 2nd mAb Isotype Control (50 ug/mL); white cell
[6] = target: full length human ACVR1 (amino acids 1-509, R206H, of accession #Q04771) on HEK293/BRE-luc/hACVR1-R206H-clone H2 cells (human) (UniProt Q04771); test: flow cytometry, 70 nM antibody on HEK293/hACVR1-R206H cells, 4C
[7] = target: T1, dimeric human BMPR1B (human, UniProt O00238 14-126, limits assumed); test: SPR Biacore T200, mAb captured by anti-human Fab, 100 nM dimeric receptor injected, 25C
T1 construct: Construct and dimerising part not described; also called Human Receptor BMPR1B
T1 sequence (looked up): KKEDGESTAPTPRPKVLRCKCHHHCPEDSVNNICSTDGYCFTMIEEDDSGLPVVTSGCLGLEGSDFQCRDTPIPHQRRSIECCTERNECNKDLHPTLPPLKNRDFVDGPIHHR
Procedure: (§1) ACVR1 mAbs were tested for cross-reactivity to a panel of bone morphogenic protein type 1 receptors including human and mouse ACVR1, BMPR1A, and BMPR1B, as well as ACVRL1 on a Biacore T200 as follows. In order to measure the specificity of ACVR1 mAbs, ACVR1 mAbs were captured with anti-human Fab immobilized on a CM5 chip. 100 nM or 10 nM of dimeric human or mouse ACVR1, ACVRL1, BMPR1A or BMPR1B were injected at 30 μL/min for 2 min (duplicate injections) and the experiment was performed at 25° C. Binding of different receptors to the captured mAb was determined using Scrubber 2.0c software.

[8] = target: T2, dimeric mouse BMPR1A (mouse, UniProt P36895 24-152, limits assumed); test: as above
T2 construct: Construct and dimerising part not described; also called Mouse Receptor BMPR1A
Procedure: as §1

[9] = target: T3, dimeric mouse ACVR1 (mouse, UniProt P37172 21-123, limits assumed); test: as above
T3 construct: also called Mouse Receptor ACVR1
T3 sequence (looked up): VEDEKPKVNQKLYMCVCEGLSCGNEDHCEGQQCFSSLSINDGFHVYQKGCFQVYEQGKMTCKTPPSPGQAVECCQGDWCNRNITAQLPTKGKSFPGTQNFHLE
Procedure: as §1

[10] = target: T4, dimeric human BMPR1A (human, UniProt P36894 24-152, limits assumed); test: as above
T4 construct: Construct and dimerising part not described; also called Human Receptor BMPR1A
Procedure: as §1

[11] = target: T5, dimeric human ACVR1 (human, UniProt Q04771 21-123, limits assumed); test: as above
T5 construct: ACVR1'; also called Human Receptor ACVR1
T5 sequence (looked up): T3 sequence (looked up) with V1M, Q10P
Procedure: as §1

[12] = target: T6, dimeric mouse BMPR1B (mouse, UniProt P36898 14-126, limits assumed); test: as above
T6 construct: Construct and dimerising part not described; also called Mouse Receptor BMPR1B
T6 sequence (looked up): T1 sequence (looked up) with V16I, L51M, N102D, R113K
Procedure: as §1

[13] = target: T7, dimeric human ACVRL1 (human, UniProt P37023 22-118, limits assumed); test: as above
T7 construct: Construct and dimerising part not described; also called Human Receptor ACVRL1
Procedure: as §1

[14] = target: T8, dimeric mouse ACVRL1 (mouse, UniProt Q61288 23-119, limits assumed); test: as above
T8 construct: Construct and dimerising part not described; also called Mouse Receptor ACVRL1
T8 sequence (looked up): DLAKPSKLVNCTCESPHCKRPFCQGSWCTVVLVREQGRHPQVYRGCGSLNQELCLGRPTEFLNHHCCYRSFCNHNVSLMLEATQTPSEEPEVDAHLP
Procedure: as §1

[15] = target: T9, mouse ACVR1 extracellular domain expressed with a C-terminal myc-myc-hexahistidine tag (mouse); test: SPR, mACVR1.mmh captured by anti-myc antibody on CM5, Fab injected, 37C
T9 construct: also called mACVR1-mmh; mACVR1.mmh
T9 chain: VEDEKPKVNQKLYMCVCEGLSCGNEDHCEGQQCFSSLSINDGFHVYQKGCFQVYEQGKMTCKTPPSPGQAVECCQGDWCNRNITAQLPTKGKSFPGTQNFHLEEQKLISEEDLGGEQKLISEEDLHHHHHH
Procedure: (§2) In order to measure the binding constants of ACVR1 Fabs, mACVR1.mmh was captured with a myc antibody (REGN 642) immobilized on a CM5 chip. Different concentrations of ACVR1 Fabs were injected over mACVR1.mmh at 37° C. Binding rate constants and equilibrium dissociation rate constants were calculated by fitting data using 1:1 Langmuir binding model (Scrubber 2.0c).

[16] = target: T10, human ACVR1 extracellular domain expressed with a C-terminal myc-myc-hexahistidine tag (human); test: SPR, hACVR1.mmh captured by anti-myc antibody on CM5, Fab injected, 37C
T10 construct: also called hACVR1-mmh; hACVR1.mmh
T10 chain: T9 chain with V1M, Q10P
Procedure: as §2, with “hACVR1.mmh” for “mACVR1.mmh”, “(REGN642)” for “(REGN 642)”

T4 sequence (P36894 24-152 limits assumed): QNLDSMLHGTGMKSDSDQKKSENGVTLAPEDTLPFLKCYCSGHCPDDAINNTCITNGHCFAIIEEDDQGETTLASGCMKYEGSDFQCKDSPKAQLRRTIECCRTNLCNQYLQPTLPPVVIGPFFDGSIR
T7 sequence (P37023 22-118 limits assumed): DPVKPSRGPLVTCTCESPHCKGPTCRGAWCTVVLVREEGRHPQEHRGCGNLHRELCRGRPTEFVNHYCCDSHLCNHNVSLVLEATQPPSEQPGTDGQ
T2 sequence (P36895 24-152 limits assumed): as the sequence (P36894 24-152 limits assumed) above, with S16L, S21P, A74T counted along it

MFI-Normalized to Unstained Control [1]: 1 fold
Molecule: Alexa Fluor-647 conjugated secondary antibody (Jackson ImmunoResearch, anti-human #109-607-003)

wavelength shift of 2nd mAb binding [2]: 0.05 nm | wavelength shift of 2nd mAb binding [3]: 0.07 nm | wavelength shift of 2nd mAb binding [4]: 0.04 nm | wavelength shift of 2nd mAb binding [5]: 0.05 nm
Molecule: isotype-matched negative control (Example 5) (antibody)

MFI-Normalized to Unstained Control [6]: 3 fold
Molecule: human IgG control antibody

100 nM Human Receptor Binding [7]: 19 RU | 100 nM Mouse Receptor Binding [8]: 7 RU | 100 nM Mouse Receptor Binding [9]: 8 RU | 100 nM Human Receptor Binding [10]: 1 RU | 100 nM Human Receptor Binding [11]: 11 RU | 100 nM Mouse Receptor Binding [12]: 1 RU | 100 nM Human Receptor Binding [13]: 2 RU | 100 nM Mouse Receptor Binding [14]: 2 RU
Molecule: Isotype control (Example 4) (antibody)

Kd [15]: 0.178 nM | koff [15]: 9.72e-05 s⁻¹ | kon [15]: 545000 M⁻¹ s⁻¹ | t1/2 [15]: 1.98 h | Kd [16]: 0.17 nM | koff [16]: 9.36e-05 s⁻¹ | kon [16]: 549000 M⁻¹ s⁻¹ | t1/2 [16]: 2.05 h
B1: REGN 5167 Fab (Fab, V domains shown)
VH: QLQLQESGPGLVKPSETLSLTCTVSGGSITSSSYYWAWIRQPPGKGLEWIGKIYYSGSTHYNPSLKSRVTISVDTSKNQFSLKLSSVTAADTAVYYCARVGGHGYGDSAGLAFDIWGQGTMVTVSS
VL: EIVLTQSPGTLSLSPGERATLSCRASQSVSSAFLAWYQQKPGQAPRLLIYGASYRHTGIPDRFSGSGSGTDFTLTISRLEPEDFAVYYCQHYGVGPRTFGGGTKVEIK
notes: also called ACVR1 Fab

Kd [15]: 0.16 nM | koff [15]: 0.000105 s⁻¹ | kon [15]: 653000 M⁻¹ s⁻¹ | t1/2 [15]: 1.83 h | Kd [16]: 0.154 nM | koff [16]: 0.000106 s⁻¹ | kon [16]: 690000 M⁻¹ s⁻¹ | t1/2 [16]: 1.82 h
B2: REGN 5166 Fab (Fab, V domains shown)
VH: QVQLVESGGGVVQPGRSLRLSCAASGFTFSAYWMHWVRQAPGKGLEWVAVISYDGSNKYYADSVKGRFTISRDHSKNTLYLQMNSLRAEDTAVYYCAKGDAYDSWRILLGGDYYGMDVWGQGTTVTVSS
VL: EIVLTQSPGTLSLSPGERATLSCRASQSVSSSYLAWYQQKPGQAPRPLIYGASSRATGIPDRFSGSGSGTDFTLTISRLEPEDFAVYYCQQGGDAPPYTFGGGTKVEIK
notes: also called ACVR1 Fab
